Laboratory results: patent US20260250421A1 (BIOCYTOGEN PHARMACEUTICALS BEIJING, published 2026)

T1: His-tagged human PTK7 protein (human, UniProt Q13308 31-704)
T1 construct: Bought protein; also called hPTK7-His; not shown: His tag
T1 sequence: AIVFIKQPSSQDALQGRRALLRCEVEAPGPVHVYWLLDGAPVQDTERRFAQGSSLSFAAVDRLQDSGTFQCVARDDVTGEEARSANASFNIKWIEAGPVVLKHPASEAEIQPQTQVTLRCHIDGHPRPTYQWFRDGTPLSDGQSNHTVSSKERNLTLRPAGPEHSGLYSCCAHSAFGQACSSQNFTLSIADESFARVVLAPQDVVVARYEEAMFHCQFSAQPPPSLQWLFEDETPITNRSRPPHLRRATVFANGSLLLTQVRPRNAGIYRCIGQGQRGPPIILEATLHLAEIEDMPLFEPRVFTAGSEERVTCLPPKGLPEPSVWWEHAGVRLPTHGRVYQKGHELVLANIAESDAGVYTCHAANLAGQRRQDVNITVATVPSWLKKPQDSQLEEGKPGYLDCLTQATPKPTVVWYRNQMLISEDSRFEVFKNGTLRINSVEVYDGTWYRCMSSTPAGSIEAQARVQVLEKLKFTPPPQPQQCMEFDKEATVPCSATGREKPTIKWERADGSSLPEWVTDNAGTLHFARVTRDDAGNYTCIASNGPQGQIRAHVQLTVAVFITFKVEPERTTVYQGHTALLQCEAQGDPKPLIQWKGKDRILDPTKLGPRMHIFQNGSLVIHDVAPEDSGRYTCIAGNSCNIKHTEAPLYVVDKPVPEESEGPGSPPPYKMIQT

T2: dog PTK7 on dog cancer cell lines (dog, UniProt A0A8I3N574 31-1070)
T2 construct: whole, on cells; Endogenous protein on dog tumour cell lines; also called PTK7 on CMT-U27 and D-17 cells; dog cancer cells
T2 sequence: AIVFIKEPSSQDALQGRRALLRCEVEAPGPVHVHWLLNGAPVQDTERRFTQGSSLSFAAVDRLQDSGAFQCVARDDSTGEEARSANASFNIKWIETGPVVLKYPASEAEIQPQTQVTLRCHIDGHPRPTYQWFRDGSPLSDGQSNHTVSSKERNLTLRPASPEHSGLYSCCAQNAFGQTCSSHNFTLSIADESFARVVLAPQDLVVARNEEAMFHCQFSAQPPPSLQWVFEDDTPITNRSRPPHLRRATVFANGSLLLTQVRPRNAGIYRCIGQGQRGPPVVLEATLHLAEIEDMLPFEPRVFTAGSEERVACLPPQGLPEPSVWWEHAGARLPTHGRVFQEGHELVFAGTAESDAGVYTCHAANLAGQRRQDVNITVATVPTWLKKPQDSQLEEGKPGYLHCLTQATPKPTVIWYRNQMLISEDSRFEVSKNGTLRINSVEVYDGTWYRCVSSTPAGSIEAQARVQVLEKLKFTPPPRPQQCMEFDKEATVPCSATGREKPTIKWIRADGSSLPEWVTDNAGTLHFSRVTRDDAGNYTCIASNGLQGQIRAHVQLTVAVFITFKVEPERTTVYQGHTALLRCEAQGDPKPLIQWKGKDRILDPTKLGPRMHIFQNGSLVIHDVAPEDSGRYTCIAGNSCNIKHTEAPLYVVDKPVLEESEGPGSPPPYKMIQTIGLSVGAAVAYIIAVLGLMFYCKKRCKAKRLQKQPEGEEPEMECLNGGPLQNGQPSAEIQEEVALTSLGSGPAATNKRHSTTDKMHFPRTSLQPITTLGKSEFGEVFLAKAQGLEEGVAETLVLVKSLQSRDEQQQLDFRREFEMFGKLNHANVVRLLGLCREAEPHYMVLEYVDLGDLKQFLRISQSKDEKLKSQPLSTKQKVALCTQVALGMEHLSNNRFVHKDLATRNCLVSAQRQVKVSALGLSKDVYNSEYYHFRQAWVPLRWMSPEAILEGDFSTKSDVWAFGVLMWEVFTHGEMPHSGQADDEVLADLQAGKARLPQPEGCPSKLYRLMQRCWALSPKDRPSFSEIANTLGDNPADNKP

B1: 1A7 (antibody, human IgG1, V domains shown)
VH: QVQLVESGGGVVQPGRSLRLSCAASGFTFSNYGMHWVRQAPGKGLEWVAVIYYDGSNKFYADSVKGRFTISRDNSKNTLYLQMSSLRAEDTAVYYCARDVAPPGSRAEYFHHWGQGTLVTVSS
VL: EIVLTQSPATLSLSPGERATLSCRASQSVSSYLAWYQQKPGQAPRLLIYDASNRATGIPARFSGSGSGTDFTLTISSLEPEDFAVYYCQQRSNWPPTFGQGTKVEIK
notes: also called anti-PTK7 antibody 1A7
B2: 2A5 (antibody, V domains shown)
VH: QVQLVQSGGGVVQPGRSLRLSCAASGFTFSNYGMHWVRQAPGKGLEWVAVIWYDGRNKYYADSVKGRFTISRDNSKNTLYLQMNSLRAEDTAVYYCARDVAPAGSRAEYFQNWGQGTLVTVSS
VL: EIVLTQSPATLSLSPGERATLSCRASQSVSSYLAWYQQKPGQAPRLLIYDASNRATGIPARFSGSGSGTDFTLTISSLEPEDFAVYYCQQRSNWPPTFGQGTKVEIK
notes: also called anti-PTK7 antibody 2A5
B3: 2D11 (antibody, V domains shown)
VH: QVQLVESGGGVVQPGRSLRLSCAASGFTFSSYGMHWVRQAPGKGLEWVAVIFYDGSNKYYADSVKGRFTISRDNSKNTLYLQMNSLRAEDTSVYYCARDVAAPGSRAEYFQNWGQGTLVTVSS
VL: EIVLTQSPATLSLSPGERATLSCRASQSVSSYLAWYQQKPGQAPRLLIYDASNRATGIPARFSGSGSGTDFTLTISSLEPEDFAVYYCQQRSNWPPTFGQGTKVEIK
notes: also called anti-PTK7 antibody 2D11
B4: 2F5 (antibody, V domains shown)
VH: QVQLVESGGGVVQPGRSLRLSCVASGFTFSNYGMHWVRQAPGKGLEWVAIIYYDGSNKYYADSVKGRFTISRDNSKNTLYLQMNSLRAEDTAVYYCARDVAAAGSRAEYLHHWGQGTLVTVSS
VL: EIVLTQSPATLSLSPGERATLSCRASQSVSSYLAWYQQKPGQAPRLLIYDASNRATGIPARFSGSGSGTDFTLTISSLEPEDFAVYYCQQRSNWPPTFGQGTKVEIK
notes: also called anti-PTK7 antibody 2F5
B5: 1A11 (antibody, V domains shown)
VH: QVQLVQSGPGLVKPSETLSLTCTVSGGSINSYYWNWIRQPPGKGLEWIGYIYYSGSTNYNPSLKSRVTISVDTSKNQFSLKLSSVTAADTAVYYCARDPHDYIRGHFDLWGRGTLFTVSS
VL: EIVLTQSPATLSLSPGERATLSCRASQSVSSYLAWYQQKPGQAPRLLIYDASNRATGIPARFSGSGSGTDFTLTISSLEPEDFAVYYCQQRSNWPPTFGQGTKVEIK
notes: also called anti-PTK7 antibody 1A11
B6: 1F2 (antibody, V domains shown)
VH: QVQLVQSGGGLVQPGGSLRLSCAASGFTFSRYEMNWVRQAPGKGLEWVSYINSIGSAINYADSVKGRFTISRDNAKNSLYLQMRSLRAEDTAVYYCVREDNWNPGYWGQGTLVTVSS
VL: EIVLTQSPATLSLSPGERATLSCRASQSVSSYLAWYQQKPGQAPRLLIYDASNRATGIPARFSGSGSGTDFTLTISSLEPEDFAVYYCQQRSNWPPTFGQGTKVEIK
notes: also called anti-PTK7 antibody 1F2
B7: 3C4 (antibody, V domains shown)
VH: QVQLEQSRAEVKKPGESLRISCKGSGYSFTSYWISWVRQMPGKGLEWMGRIDPSDSYTNYNPSFQGHVTISADKSISTAYLQWSSLKASDTAMYYCARRDGSYFDFDYWGQGTLVTVSS
VL: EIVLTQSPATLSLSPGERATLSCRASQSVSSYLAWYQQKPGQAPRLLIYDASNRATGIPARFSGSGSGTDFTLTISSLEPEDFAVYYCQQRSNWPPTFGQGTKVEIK
notes: also called anti-PTK7 antibody 3C4
B8: 3E6 (antibody, V domains shown)
VH: QVQLVESGAEVKKPGESLRISCRGSGYSFTSYWISWVRQMPGKGLEWMGRIDPSDSYTKYSPSFQGHVTISADKSISTAYLQWSSLKASDTAMYYCARRDGDYFDFDYWGQGTLVTVSS
VL: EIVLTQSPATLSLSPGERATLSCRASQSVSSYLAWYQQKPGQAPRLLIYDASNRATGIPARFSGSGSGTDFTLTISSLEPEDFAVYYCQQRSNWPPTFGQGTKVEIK
notes: also called anti-PTK7 antibody 3E6

Experiments:
[1] = molecular target: T1, His-tagged human PTK7 protein; test: BLI Octet binning on hPTK7-His; competitor 2F5
Protocol: (§1) Relative positions of target protein epitope between a pair of purified anti-PTK7 antibodies were analyzed by Biolayer Interferometry (BLI) using ForteBio Octet system at 30° C. A total of […] purified antibodies were used: 1A7, 1A11, 1F2, 2A5, 2D11, 2F5, 3C4 and 3E6.
(§2) 1×HBS-EP+ buffer (10 mM 4-(2-hydroxyethyl)-1-piperazineethanesulfonic acid (HEPES), 150 mM NaCl, 3 mM ethylenediaminetetraacetic acid (EDTA) and 0.05% P20, pH7.4) diluted from HBS-EP+ buffer (10×) was used as the running buffer throughout the experiment. His-tagged human PTK7 protein was captured at a flow rate of 10 μL/min, and 200 nM of antibody (Analyte 1) was injected at a flow rate of 30 μL/min to bind the ligand. Another antibody (Analyte 2) was injected under the same conditions to determine whether the binding of different antibodies interfered with each other. The binding time was 300 s for each antibody.
(§3) The binding value of each antibody was obtained using Data Analysis HT 12.0. To quantify the interference of one antibody binding to another, a binding ratio was calculated to compare each pair of antibodies. The binding ratio is defined as the binding value of the second antibody (Analyte 2), divided by the binding value of the first antibody (Analyte 1). […] In general, antibody pairs that interfere with each other have the same or overlapping epitopes.

[2] = molecular target: T1, His-tagged human PTK7 protein; test: BLI Octet binning on hPTK7-His; competitor 1A11
Protocol: as §1, §2, §3

[3] = molecular target: T1, His-tagged human PTK7 protein; test: SPR Biacore 8K, Ab on Protein A chip
Protocol: Purified anti-PTK7 antibodies were diluted to 1 μg/mL and then injected into the Biacore™ 8K biosensor at 10 μL/min for about 50 seconds to achieve a desired protein density (e.g., about 50 response units (RU)). The His-tagged PTK7 protein at a concentration of 200 nM or 0 nM was then injected at 30 μL/min for 180 seconds. Dissociation was monitored for 400 seconds. The chip was regenerated after the last injection of each titration with glycine (pH 2.0, 30 μL/min for 30 seconds).

[4] = molecular target: T1, His-tagged human PTK7 protein; test: BLI Octet binning on hPTK7-His; competitor 3E6
Protocol: as §1, §2, §3

[5] = molecular target: T2, dog PTK7 on dog cancer cell lines; test: flow cytometry, CMT-U27 dog cells, Ab 5 ug/mL
Protocol: The binding activity of anti-PTK7 antibodies to cancer cell lines was verified by flow cytometry. […] Purified anti-PTK7 antibody with a concentration of 5 μg/mL was added to each well and was incubated at 4° C. for 30 minutes. […] The cells were collected, and the mean fluorescence intensity (MFI) was determined. Human IgG1 was used as ISO control.

Binder | binding ratio [1] | binding ratio [2] | Kd [3] [nM] | koff [3] [s⁻¹] | kon [3] [M⁻¹ s⁻¹] | binding ratio [4] | MFI [5]
B1 | 0.07 | 0.74 | 40.9 | 0.00425 | 104000 | 1.05 | 56700
B2 | -0.02 | 0.62 | 25.9 | 0.00281 | 108000 | 0.94 | 76400
B3 | 0.14 | 0.83 | 8.11 | 0.000249 | 30600 | 1.18 | 72200
B4 | 0.08 | 0.71 | 109 | 0.00388 | 35600 | 1.02 | 81300
B5 | 0.67 | -0.01 | 41 | 0.00318 | 77600 | 0.94 | 75600
B6 | 0.56 | 0.64 | 69.8 | 0.012 | 172000 | 0.75 | 45800
B7 | 0.86 | 0.84 | 25.4 | 0.00237 | 93200 | 0.17 | 37400
B8 | 0.71 | 0.71 | 3.44 | 0.000454 | 132000 | 0.08 | 94500
